From US20260235601, “APTAMER BASED DETECTION OF SARS-COV-2 INFECTION” (COUNCIL OF SCIENTIFIC & INDUSTRIAL RESEARCH, published 2026) come the findings set out here.

B1: AptRBD9 (ssDNA)
DNA: ATGCGGATCCCGCGCCCGACGTCGCATGCTCCCGGCCGCCATGGCGGCCGCGGGAATTCGATTAGCGCGAAGCTTGCGC
B2: AptRBD3 (ssDNA)
DNA: ATGCGGATCCCGCGCATTTAAAGCGGTTCGATGCGTATGGGTTTGTCCGATTCGGTGCGCGAAGCTTGCGC
B3: AptRBD6 (ssDNA)
DNA: ATGCGGATCCCGCGCATTTAAAGCGCTTCGATGCGTATGGGTTTGTCCGATTAGCTGCGCGAAGCTTGCGC
B4: AptRBD4 (ssDNA)
DNA: ATGCGGATCCCGCGCATTTAAAGCGTCGATGCGTATGGGTTTGTCCGATTAGCTGCGCGAAGCTTGCGC
B5: AptRBD5 (ssDNA)
DNA: ATGCGGATCCCGCGCATTTAAAGGGAGACCTATGGGTTTGTCCGATTAGCTGCGCGAAGCTTGCGC
B6: AptRBD8 (ssDNA)
DNA: ATGCGGATCCCGCGCATTTAAAGGGGGCGCTCCGTATGGGTTTGTCCGATTAGCTGCGCGAAGCTTGCGC
B7: AptRBD2 (ssDNA)
DNA: ATGCGGATCCCGCGCATATTAAAGGGGAGGCTCCCTATGGGTTTGTCCGATTAGCTGCGCGAAGCTTGCGC

This series has as its target SARS-CoV-2 spike receptor-binding domain (RBD) (SARS-CoV-2 (Wuhan strain), UniProt P0DTC2 P0DTC2:319-541). In words: ELONA. To be noted: tags: N-terminal His tag, pET-15b, E. coli BL21 Star (DE3), about 26 kDa.
AGCGGTTCGATGCGTATGGTTTGTCCGAT (ssDNA) [AptRBD3.3] showed an activity of 4 ng/mL.
Consider B1, for which the binding result is recorded as “binds”.
Turning to ATTTAAAGGGGGCGCTCCGTATGGGTTTGTCCGATTAGCT (ssDNA) [AptRBD8.1], the activity amounted to 8 ng/mL.
B2 returned a binding signal of 0.75 absorbance.
On the same count and under the same terms, to B3 belongs 0.7 absorbance.
In the case of ATTTAAAGCGCTTCGATGCGTATGGGTTTGTCCGAT (ssDNA) [AptRBD6.1], the activity is 4 ng/mL.
B4: the binding result is reported as “binds”.
In the case of B5, the binding result is given as “binds”.
As to ATTTAAAGCGGTTCGATGCGTATGGTTTGTCCGAT (ssDNA) [AptRBD3.2], the activity was found to be 4 ng/mL.
Molecule B6 returned a binding signal of 0.75 absorbance.
Turning to ATTTAAAGCGGTTCGATGCGTATGGTTTGTCCGATTCGGT (ssDNA) [AptRBD3.1], the activity stood at 4 ng/mL.
As to B7, the binding result is given as “binds”.
